Paper PMC9674292

Columns and labels:
[1] = biological target: EGFP-VopL (V. parahaemolyticus); assay: stepwise photobleaching of single-molecule speckles (TIRF, live cells); XTC cells with very low levels of EGFP-VopF or EGFP-VopL; speckles arrested with 10 nM latrunculin A; continuous 488-nm illumination; distribution of bleaching steps compared with a binomial model (probability of EGFP being fluorescent 0.75)
EGFP-VopF (V. cholerae) = assay: as above

Row | Substance | stoichiometry N [1] | stoichiometry N (EGFP-VopF (V. cholerae))
1 | EGFP-VopL (natural protein) | 2 | –
2 | EGFP-VopF (natural protein) | – | 2
